Assay results taken from patent publication US5795721.

Molecular target: T1, FP505 (ICP4 residues 210-490 DNA-binding/dimerization domain fusion) (Herpes simplex virus 1) (UniProt P08392)
T1 sequence: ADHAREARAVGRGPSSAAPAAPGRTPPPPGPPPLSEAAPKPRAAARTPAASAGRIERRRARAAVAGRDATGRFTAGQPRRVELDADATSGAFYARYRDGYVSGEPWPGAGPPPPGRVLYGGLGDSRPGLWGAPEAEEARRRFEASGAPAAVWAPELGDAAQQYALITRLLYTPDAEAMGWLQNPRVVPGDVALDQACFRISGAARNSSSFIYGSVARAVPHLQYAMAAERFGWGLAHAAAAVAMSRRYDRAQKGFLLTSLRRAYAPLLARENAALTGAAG
Test: filter

Substance “GGGAGACAAGAAUAAACGCUCAANNNNNNNNNNNNNNNNNNNNNNNNNNNNNNNNNNNNNNNNUUCGACAGGAGGCUCACAACAGGC [random RNA pool]” has a Kd (random pool) of over 100 nM.

ICP0 promoter duplex 200mer was tested, and the Kd (without tRNA, >1 uM with tRNA excess) was 0.5 nM.

With “GGGAGGACAGTGCGGNNNNNNNNNNNNNNNNNNNNNNNNNNNNNNNNNNNNNNNNCAGTGCGTCAGTCAAC [random ssDNA pool]” the Kd (with tRNA, >11 nM without tRNA) was over 160 nM.
